Consider one substance from paper PMC3882140.

The target of the assay is CP-431C/mCherrySP141(C140A) P22 procapsid (bacteriophage P22) (UniProt P26747). Put plainly: pelleting by ultracentrifugation and resuspension.

Regarding “CP-431C/mCherrySP141(C140A) P22 procapsid (from UniProt P26747 1-430; P26748 141-303) (complex)”, the soluble capsid recovered after pelleting, relative to wtCP/mCherrySP141(C140A) was determined as 3%.
